The text below walks through data of patent US20140328838A1 (NVIP, published 2014).

Assay [1] has as its target T1, human TNF (human, UniProt P01375 77-233).
T1 construct: also called huTNF
Briefly: ELISA (FIG. 16 panel B).

The target of assay [2] is T2, canine TNF alpha (canine, UniProt P51742 77-233).
T2 construct: Coated at 5 ug/ml in the ELISA; Used at 1 ng/mL in the reporter assay
Briefly: ELISA (FIG. 16 panel C). (In general: ELISA stands for enzyme-linked immunosorbent assay.)

In assay [3] the target is T2, canine TNF alpha. Briefly: ELISA, canine TNF alpha coated; antibody 5 to 0.05 µg/ml (FIG. 14B).

T1 sequence (P01375 77-233 limits assumed): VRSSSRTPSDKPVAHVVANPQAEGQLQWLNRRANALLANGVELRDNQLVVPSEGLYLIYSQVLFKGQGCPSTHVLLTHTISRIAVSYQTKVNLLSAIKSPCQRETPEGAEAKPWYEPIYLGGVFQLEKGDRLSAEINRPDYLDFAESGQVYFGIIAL
T2 sequence (P51742 77-233 limits assumed): as the sequence (P01375 77-233 limits assumed) above, with R2K, Q21E, N30S, R44T, V49I, E53D, I83F, A109T, R138L, D140N counted along it

B1: caninised anti-huTNF MAb 148 (antibody, V domains shown)
VH: EVQLVESGGGVVQPGGSLRLSCAASGFIFSSYAMRWVRQAPGKGLEWVAFMSYDGSNKKYADSVKGRFTISRDNSKNTLYLQMNSLRAEDTAVYYCARDRGIAAGGNYYYYGMDVWGQGTSVTVSS
VL: EIVMTQSPASLSLSPGEKATISCRASQSVYSYLAWYQQKPGQAPRLLIYDASNRATGVPSRFSGSGSGTDFTLTISSLEPEDVAVYYCQQPSNWPPFTFGPGTKVDIKR
notes: Expressed in CHO cells and purified by Protein A chromatography
Consider B1, for which the binding result in assay [1] was “binds”; in assay [2], “no binding”.

B2: caninised anti-TNF monoclonal antibody based on D2E7 (ca-HCB+ca-kLC) (antibody, V domains shown)
VH: not shown
VL: DIVMTQSPASLSLSQEEKVTITCRASQGIRNYLAWYQQKPGQAPKLLIYAASTLQSGVPSRFSGSGSGTDFTLTISSLEPEDVAVYYCQRYNRAPYTFGQGTKVEIKR
notes: also called caninised (Ca) D2E7 based MAb; canine PETised D2E7
Turning to B2, the binding result in assay [1] and in assay [3] was “binds” in each case.
